Consider 1 molecule from paper PMC10547193.

Experiment [1] concerns the target CVA10-WT viral particles (coxsackievirus A10 prototype strain Kowalik, mature virion) (coxsackievirus A10 (strain Kowalik)).
Experiment [2] concerns the target CVA10 escape mutant N2142D+N3183Y (coxsackievirus A10 strain Kowalik with VP2 N142D and VP3 N183Y) (coxsackievirus A10 (strain Kowalik)).
For experiment [3], the target named is CVA10-N142A viral particles (coxsackievirus A10 strain Kowalik with VP2 N142A) (coxsackievirus A10 (strain Kowalik)).

B1: human KRM1-Fc (ectodomain of human KREMEN1 fused to the Fc portion of human IgG1) (Fc fusion)
chain: APSPGLGPECFTANGADYRGTQNWTALQGGKPCLFWNETFQHPYNTLKYPNGEGGLGEHNYCRNPDGDVSPWCYVAEHEDGVYWKYCEIPACQMPGNLGCYKDHGNPPPLTGTSKTSNKLTIQTCISFCRSQRFKFAGMESGYACFCGNNPDYWKYGEAASTECNSVCFGDHTQPCGGDGRIILFDTLVGACGGNYSAMSSVVYSPDFPDTYATGRVCYWTIRVPGASHIHFSFPLFDIRDSADMVELLDGYTHRVLARFHGRSRPPLSFNVSLDFVILYFFSDRINQAQGFAVLYQAVKEELPQERPAVNQTVAEVITEQANLSVSAARSSKVLYVITTSPSHPPQTVPG
modifications: biotin (EZ-Link Sulfo-NHS-LC-LC-Biotin) in the ELISA
As for B1, the neutralization concentration (100% protection from CPE) of KRM1-Fc against CVA10 prototype strain Kowalik in RD cells in experiment [1] was found to be 12.5 nM. In experiment [2], this molecule registered a change of the neutralization concentration of KRM1-Fc against the mutant relative to CVA10-WT (standard neutralization assay, RD cells) greater than 128 times. For the same molecule, the resistance to neutralization by KRM1-Fc relative to rescued CVA10-WT (neutralization assay, RD cells) in experiment [3] amounted to 64 fold.
